From patent US20250152746A1, “BASE EDITING OF ANGPTL3 AND METHODS OF USING SAME FOR TREATMENT OF DISEASE” (Verve Therapeutics, Inc., priority 2020, published 2025) come the findings set out here.

To fix the notation:
B1: GA188: PCSK9 gRNA; protospacer TATTCATCCGCCCGGTACCG (SEQ ID NO: 182) (nucleic acid)
guide: mU*mA*mU*rUrCrArUrCrCrGrCrCrCrGrGrUrArCrCrGrGrUrUrUrUrArGrArGrCrUrArGrArArArUrArGrCrArArGrUrUrArArArArUrArArGrGrCrUrArGrUrCrCrGrUrUrArUrCrArArCrUrUrGrArArArArArGrUrGrGrCrArCrCrGrArGrUrCrGrGrUrGrCrU*mU*mU*mU
B2: GA187: PCSK9 gRNA; protospacer CTCCTCGATGTAGTCGACAT (SEQ ID NO: 181) (nucleic acid)
guide: mC*mU*mC*rCrUrCrGrArUrGrUrArGrUrCrGrArCrArUrGrUrUrUrUrArGrArGrCrUrArGrArArArUrArGrCrArArGrUrUrArArArArUrArArGrGrCrUrArGrUrCrCrGrUrUrArUrCrArArCrUrUrGrArArArArArGrUrGrGrCrArCrCrGrArGrUrCrGrGrUrGrCrU*mU*mU*mU
B3: GA226: PCSK9 gRNA; protospacer GGCTTTTCCGAATAAACTCC (SEQ ID NO: 220) (nucleic acid)
guide: GGCUUUUCCGAAUAAACUCCGUUUUAGAGCUAGAAAUAGCAAGUUAAAAUAAGGCUAGUCCGUUAUCAACUUGAAAAAGUGGCACCGAGUCGGUGCUUUU
modifications: sugars from the 5' end m3 r94 m3, linkages s3 o93 s3 (s phosphorothioate, o phosphodiester), T or U not given here
B4: GA008: structure-guided 2′-OMe heavy guide RNA (gRNA) design, PCSK9 (nucleic acid)
guide: mG*mG*mU*rGrCrUrArGrCrCrUrUrGrCrGrUrUrCrCrGmGrUrUrUrUrArGmAmGmCmUmAmGmAmAmAmUmAmGmCmAmArGrUrU*mArAmArAmUrAmAmGmGmCmUmArGrUmCmCrGrUrU*rAmUmCrArAmCmUmUmGmAmAmAmAmAmGmUmGrGmCmAmCmCmGmAmGmUmCmGmGmUmGmCmU*mU*mU*mU
B5: GA004: PCSK9 gRNA, GA156 spacer with modifications to the tracrRNA sequence (nucleic acid)
guide: mG*mG*mU*rGrCrUrArGrCrCrUrUrGrCrGrUrUrCrCrGmGrUrUrUrUrArGmAmGmCmUmAmGmAmAmAmUmAmGmCmAmArGrUrUmArAmArAmUrAmAmGmGmCmUmArGrUmCmCrGrUrUrAmUmCrArAmCmUmUmGmAmAmAmAmAmGmUmGrGmCmAmCmCmGmAmGmUmCmGmGmUmGmCmUmUmUmUmU
B6: GA009: minimally modified control gRNA, PCSK9 (nucleic acid)
guide: mG*mG*mU*rGrCrUrArGrCrCrUrUrGrCrGrUrUrCrCrGrGrUrUrUrUrArGrArGrCrUrArGrArArArUrArGrCrArArGrUrUrArArArArUrArArGrGrCrUrArGrUrCrCrGrUrUrArUrCrArArCrUrUrGrArArArArArGrUrGrGrCrArCrCrGrArGrUrCrGrGrUrGrCrU*mU*mU*mU
B7: GA002: PCSK9 gRNA, GA156 spacer with modifications to the tracrRNA sequence (nucleic acid)
guide: GGTGCTAGCCTTGCGTTCCGGTTTTAGAGCTAGAAATAGCAAGTTAAAATAAGGCTAGTCCGTTATCAACTTGAAAAAGTGGCACCGAGTCGGTGCTTTT
modifications: listed as RNA; modified_base 1: mod_base = OTHER; note = 2'-O-Methyl-guanosine phosphorothioate; modified_base 2: mod_base = OTHER; modified_base 3: mod_base = OTHER; note = 2'-O-Methyl-uridine phosphorothioate
B8: GA001: PCSK9 gRNA, GA156 spacer with modifications to the tracrRNA sequence (nucleic acid)
guide: rG*rG*rU*rGrCrUrArGrCrCrUrUrGrCrGrUrUrCrCrGrGrUrUrUrUrArGrAmGmCmUmAmGmAmAmAmUmAmGmCrArArGrUrUrArArArArUrArArGrGrCrUrArGrUrCrCrGrUrUrArUrCrAmAmCmUmUmGmAmAmAmAmAmGmUmGmGmCmAmCmCmGmAmGmUmCmGmGmUmGmCmU*mU*mU*mU
B9: GA005: PCSK9 gRNA, GA156 spacer with modifications to the tracrRNA sequence (nucleic acid)
guide: GGTGCTAGCCTTGCGTTCCGGTTTTAGAGCTAGAAATAGCAAGTTAAAATAAGGCTAGTCCGTTATCAACTTGAAAAAGTGGCACCGAGTCGGTGCTTTTT
modifications: chemistry not given here
B10: GA003: PCSK9 gRNA, GA156 spacer with modifications to the tracrRNA sequence (nucleic acid)
guide: mG*mG*mU*rGrCrUrArGrCrCrUrUrGrCrGrUrUrCrCrGrGrUrUrUrU*rArGrAmGmCmUmAmGmAmAmAmUmAmGmCrArArGrUrU*rArArArArU*rArArGrGrCrU*rArGrUrCrCrGrUrU*rArUrC*rAmAmCmUmUmGmAmAmAmAmAmGmUmGmGmCmAmCmCmGmAmGmUmCmGmGmUmGmCmU*mU*mU*mU
B11: GA006: PCSK9 gRNA, GA156 spacer with modifications to the tracrRNA sequence (nucleic acid)
guide: rG*rG*rU*rGrCrUrArGrCrCrUrUrGrCrGrUrUrCrCrGmGrUrUrUrUrArGmAmGmCmUmAmGmAmAmAmUmAmGmCmAmArGrUrUmArAmArAmUrAmAmGmGmCmUmArGrUmCmCrGrUrUrAmUmCrArAmCmUmUmGmAmAmAmAmAmGmUmGrGmCmAmCmCmGmAmGmUmCmGmGmUmGmCmU*mU*mU*mU

In the oligonucleotide strings, read from the 5' end, every base follows the letter of its sugar. An asterisk marks phosphorothioate; unmarked linkages are phosphodiester. Other units and linkages are bracketed, terminal groups are in braces. A string of capitals states the bases alone. m = 2'-O-methyl; r = 2'-OH (RNA)

The subject of the first series is PCSK9 gene. Put plainly: PCSK9 gRNA/SpCas9 editing in primary cynomolgus hepatocytes (Tables 2, 22). The class given is cell-based, cynomolgus monkey. Conditions: 100 ng/RNA/mL; SpCas9 mRNA MS002 1:1 by weight. Here is the method: (§1) In set of experiments, PCSK9 gRNAs were co-transfected with an equivalent amount (1:1 ratio by weight) of in vitro transcribed commercially available SpCas9 mRNA MS002 purchased from TriLink Biotechnologies into primary human hepatocytes at 2500, 500, or 100 ng/RNA/mL and processed as described in detailed methods. Extracted genomic DNA was analyzed for gene editing at the target site with next-generation sequencing of PCR amplicons generated around the target sites. Samples were prepared using the Nextera XT DNA library preparation kit (Illumina) according to the manufacturer's protocol. Briefly, two rounds of PCR were performed first to amplify the region of interest and second to add DNA sequences required for next generation sequencing and sample identification to the initial product. The final amplicon was sequenced on the Illumina MiSeq instrument according to the manufacturer's protocol. A wide range of editing activities (Table 2) were observed. In a second set of experiments, ANGPTL3 gRNAs were co-transfected with an equivalent amount of in vitro transcribed SpCas9 mRNA (1:1 ratio by weight) into primary human hepatocytes and processed and analyzed similarly (Table 3).
[…] Genomic DNA was processed, sequenced, and analyzed as described in the detailed methods section. GA266 was transfected independently twice to serve as two positive controls.
(§2) Plating, culturing, and transfection of primary hepatocytes. Primary human liver hepatocytes (PHH) and primary cynomolgus liver hepatocytes (PCH) from BioIVT were cultured per the manufacturer's protocol. Briefly, primary human hepatocytes and primary cyno hepatocytes were obtained as frozen aliquots from BioIVT. Four lots of primary human hepatocytes, each derived from a de-identified individual donor, were used for the experiments: STL (main donor) was used for all experiments, including screening experiments and off-target experiments; HLY, JLP, and TLY were used for off-target experiments. The HFG lot of primary cyno hepatocytes were used for experiments. Following the manufacturer's instructions, cells were thawed and rinsed prior to plating in 24-well plates that had been coated with bovine collagen overnight, with a density of approximate 350,000 cells/well in INVITROGRO hepatocyte medium supplemented with TORPEDO antibiotic mix (BioIVT). The cells were thawed and resuspended in hepatocyte thawing medium followed by centrifugation at 100 g for 10 min at 4° C. The supernatant was discarded, and the pelleted cells resuspended in hepatocyte plating medium. Each vial contains approximately 5 million cells that were used for plating one 24-well plate. Plated cells were allowed to settle and adhere for 4-6 h in a tissue culture incubator at 37° C. under 5% CO2 atmosphere. After incubation, cells were checked for monolayer formation. The incubating media were then replaced with fresh hepatocyte maintenance media (complete INVITROGRO medium obtained from BioIVT, the cell line provider). The cells thus became ready for transfection. Each of the gRNAs were co-transfected with an equivalent amount of in vitro transcribed ABE8.8 mRNA (1:1 ratio by molecular weight) into primary human hepatocytes via MessengerMax reagent (Lipofectamine), using various dilutions to assess for editing activity at different concentrations of test article. MessengerMAX from Thermo Fisher is used for transfection. Solution A: desired amount of guide RNA is mixed with 1:1 wt ratio of mRNA in OptiMEM. Solution B: MessengerMAX in OptiMEM. After mixing solutions A and B, the mixture was incubated at room temperature for 20 min. 60 μL of the incubated solution was added dropwise to each cell wells. For protospacer sequences that were a perfect match to the corresponding cynomolgous monkey PCSK9 or ANGPTL3 gene sequence, each gRNA was also co-transfected with an equivalent amount of ABE8.8 mRNA (1:1 ratio by molecular weight) into primary cynomolgous hepatocytes, and followed the same transfection protocol. […]
For the molecule B1, the “Cyno Primary Hepatocyte Editing % 100” value is 0.01%.
On the same count and under the same terms, the same measure for B2: 3.77%.

Still in this series, the particulars now being: 500 ng/RNA/mL; SpCas9 mRNA MS002 1:1 by weight.
In the case of B1, the “Cyno Primary Hepatocyte Editing % 500” value amounted to 0.01%.
The same measure, in the same setting: the same measure for B2: 12.30%.

The same series, now with this note: 2500 ng/RNA/mL; SpCas9 mRNA MS002 1:1 by weight.
Take B1: the “Cyno Primary Hepatocyte Editing % 2500” value is 0.06%.
With B2, the “Cyno Primary Hepatocyte Editing % 2500” value turned out to be 29.24%.

Another series deals with PCSK9 gene. Briefly: PCSK9 gRNA/SpCas9 editing in primary human hepatocytes (Tables 2, 4). Conditions: 100 ng/RNA/mL; SpCas9 mRNA MS002 1:1 by weight. The class given is cell-based. As to the method:
as §1
PCSK9 gRNAs were co-transfected with an equivalent amount of in vitro transcribed SpCas9 mRNA MS002 (1:1 ratio by weight) into primary human hepatocytes and processed as described in detailed methods. A wide range of editing activities were observed (Table 4; ND=Not determined). The guides with the highest editing activity at five days post transfection were GA001, GA002, GA007, and GA008.
Human primary hepatocytes were transfected at 2500, 1250, 500, and 250 ng/test article/mL with SpCas9 mRNA MS002 and a gRNA targeting PCSK9 with modifications to the tracr. Genomic DNA was processed, sequenced, and analyzed as described in the detailed methods section. GA156 was transfected to serve as a positive control.
as §2, with “transfection.” for “transfection. Solution A: desired amount of guide RNA is mixed with 1:1 wt ratio of mRNA in OptiMEM. Solution B: MessengerMAX in OptiMEM. After mixing solutions A and B, the mixture was incubated at room temperature for 20 min. 60 μL of the incubated solution was added dropwise to each cell wells. For protospacer sequences that were a perfect match to the corresponding cynomolgous monkey PCSK9 or ANGPTL3 gene sequence, each gRNA was also co-transfected with an equivalent amount of ABE8.8 mRNA (1:1 ratio by molecular weight) into primary cynomolgous hepatocytes, and followed the same transfection protocol.”
Regarding B1, the “Human Primary Hepatocyte Editing % 100” value came to 4.21%.
Still for that read-out and setting: the same measure for B3: 0.4%; for B2: 2.44%.

Still in this series, the particulars now being: 500 ng/RNA/mL; SpCas9 mRNA MS002 1:1 by weight.
With B1, the “Human Primary Hepatocyte Editing % 500” value came to 15.38%.
B3: the “Human Primary Hepatocyte Editing % 500” value is listed as 2.99%.
With B2, the “Human Primary Hepatocyte Editing % 500” value is given as 6.47%.

The same series, now with this note: 2500 ng/RNA/mL; SpCas9 mRNA MS002 1:1 by weight.
Regarding B1, the “Human Primary Hepatocyte Editing % 2500” value turned out to be 41.02%.
On to B3, for which the “Human Primary Hepatocyte Editing % 2500” value is listed as 7.61%.

Still in this series, the particulars now being: SpCas9 mRNA MS002.
With B4, the “editing compared with minimally modified control gRNA GA009” value is given as “improved editing”.

The series is the same for the next values; noted with them: modified gRNA, SpCas9 mRNA MS002 1:1 by weight; day 3 post transfection.
For the molecule B5, the “% Editing, day 3” value turned out to be 7%.
For the molecule B6, the “% Editing, day 3” value is given as 4%.
For B7, the “% Editing, day 3” value turned out to be 28%.
For the molecule B8, the “% Editing, day 3” value is listed as 16%.
On to B4, for which the “% Editing, day 3” value was determined as 20%.
As for B9, the “% Editing, day 3” value was 1%.

Still in this series, the particulars now being: modified gRNA, SpCas9 mRNA MS002 1:1 by weight; day 5 post transfection.
In the case of B10, the “% Editing, day 5” value was found to be 7%.
Same read-out and setting: the same measure for B5: 12%; for B6: 19%; for B11: 12%.
Still for that read-out and setting: the same measure for B7: 23%.
B8: the “% Editing, day 5” value was 27%.
Same read-out and setting: the same measure for B4: 28%; for B9: 15%.
